Results published in patent publication US20020168363A1, “Integrin/adhesion antagonists” (Amgen Inc., priority 2000, published 2002).

Columns and labels:
human αvβ3 = molecular target: T1, human αvβ3 (Homo sapiens, UniProt P05106+P06756); assay: Solid phase binding assay (Vitronectin-Ru, integrin coated paramagnetic beads); conditions: FIGS. 4A and 4B
T1 construct: tissue Chemicon International Inc. (alternative source, catalogue number not given); host or cells: placenta
Procedure: (§1) Ruthenylation of Vitronectin and Fibrinogen. Purified human vitronectin or purified human fibrinogen (Calbiochem) was dialyzed into 50 mM borate, 100 mM NaCl pH 8.0. A stock solution of ruthenium (II) tris bipyridine N-hydroxysuccinimide ester (Origen TAG® Ester, Igen Inc. Gaithersburg, Md.) was freshly prepared by adding 50 μL DMSO to 150 μg of the Origen TAG-NHS ester. Fifty microliters of the Origen TAG-NHS ester was added to one fifth molar ratio of the matrix protein. After one hour incubation at […], the reaction was quench by the addition of 50 μL of 2 M glycine. Unincorporated ruthenium and excess glycine were removed by dialysis into PBS, 0.05% NaN3. Protein concentrations were determined using Micro-BCA (Pierce, Rockford, Ill.). Origen TAG incorporation was assessed at 455 nm (e=13,700 M^−1 cm^−1). Vitronectin-Ru and Fibrinogen-Ru were stored at −70° C. until needed. […]
(§2) Solid Phase Binding Assay. […] The assay mixture was incubated at 25° C. for two hours with agitation and subsequently read on an Origen Analyzer® (Igen Inc. Gaithersburg, Md.) Non-specific binding was determined using 1 μM Vitronectin, 1 μM Fibrinogen or 5 mM EDTA. The data was prepared using a four-parameter fit by the Levenburg Marquardt algorithm (XLfit® ID Business Solutions.) Ki values were calculated using the equation of Cheng and Prusoff (1973) Biochem. Pharmacology 22: 3099-3108.

GPIIb/IIIa = molecular target: T2, GPIIb/IIIa (Homo sapiens, UniProt P05106+P08514); assay: Inhibition of ruthenium-labeled human fibrinogen (fibrinogen-ru) binding to GPIIb/IIIa, solid phase binding assay; conditions: FIGS. 5A and 5B
T2 construct: The washed platelets were lysed in, 20 mM Tris-HCl pH 7.4, 140 mM NaCl, 2 mM CaCl2, 1 mM pefabloc, 3% octylglucoside; from tissue; host or cells: outdated platelets
Procedure: as §1, §2

HT1080 cells = assay: Effect on the growth of HT1080 cells; format: cell-based, human
Procedure: Laminin activity assay: Apoptosis of HT-1080 human fibrosarcoma cells. HT-1080 cells from a human fibrosarcoma are cultured in DMEM supplemented with 10% fetal bovine serum, 100 μg/ml streptomycin and 100 units/ml penicillin. The culture is started at a density of 5×10^4 cells per plate. The Fc-peptides (Fc-YIGSR, Fc-(YIGSR)2, YIGSR-Fc, or (YIGSR)2-Fc)) at various concentrations are added to each plate, and after 16 hours the cells are harvested for evaluation of apoptosis with crystal violet solution at 560 nm absorbance. The DNA fragmentation analysis is also carried out to assess the degree of apoptosis in a 1.5% agarose gel and visualized by ethidium bromide staining.
Two additional laminin peptides, (YIGSR)3 and (YIGSR)5 from Table 6 herein, were fused to human IgG1. Those fusion peptides were designated as laminin-3 ((YIGSR)3-Fc) and laminin-5 ((YIGSR)5-Fc). The purified peptide-Fc fusions were examined for their effect on the growth of HT1080 cells as described in Example 1. […] A 50-fold enhancement was seen after it was fused to human IgG1.

T1 sequence (P06756 31-889 limits assumed): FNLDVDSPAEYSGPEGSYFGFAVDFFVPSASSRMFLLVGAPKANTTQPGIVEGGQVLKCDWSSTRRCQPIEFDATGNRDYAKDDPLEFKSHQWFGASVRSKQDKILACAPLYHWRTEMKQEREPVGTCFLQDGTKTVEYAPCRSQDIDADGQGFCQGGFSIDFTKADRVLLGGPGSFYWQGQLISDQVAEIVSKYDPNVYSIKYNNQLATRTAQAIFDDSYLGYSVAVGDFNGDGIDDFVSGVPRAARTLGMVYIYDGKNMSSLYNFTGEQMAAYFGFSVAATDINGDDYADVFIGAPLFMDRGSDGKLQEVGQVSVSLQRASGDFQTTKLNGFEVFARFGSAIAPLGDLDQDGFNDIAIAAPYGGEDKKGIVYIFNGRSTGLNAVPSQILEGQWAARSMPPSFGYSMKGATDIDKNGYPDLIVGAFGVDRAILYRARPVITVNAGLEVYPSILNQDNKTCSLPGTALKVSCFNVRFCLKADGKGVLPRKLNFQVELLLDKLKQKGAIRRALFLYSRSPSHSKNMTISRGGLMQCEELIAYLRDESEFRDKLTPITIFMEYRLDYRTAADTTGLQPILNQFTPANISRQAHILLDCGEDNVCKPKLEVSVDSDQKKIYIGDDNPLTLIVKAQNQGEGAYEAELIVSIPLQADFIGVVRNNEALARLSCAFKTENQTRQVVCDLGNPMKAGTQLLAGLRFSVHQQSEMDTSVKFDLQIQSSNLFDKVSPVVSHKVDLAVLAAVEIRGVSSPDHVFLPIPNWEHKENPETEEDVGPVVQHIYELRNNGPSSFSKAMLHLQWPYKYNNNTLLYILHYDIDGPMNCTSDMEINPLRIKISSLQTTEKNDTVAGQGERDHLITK
T1 sequence (P06756 891-1048 partner limits assumed): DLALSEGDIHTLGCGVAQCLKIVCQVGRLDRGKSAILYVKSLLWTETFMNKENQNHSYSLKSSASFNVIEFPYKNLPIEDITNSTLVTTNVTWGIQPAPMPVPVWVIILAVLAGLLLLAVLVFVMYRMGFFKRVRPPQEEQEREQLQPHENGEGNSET
T1 sequence (P05106 27-788): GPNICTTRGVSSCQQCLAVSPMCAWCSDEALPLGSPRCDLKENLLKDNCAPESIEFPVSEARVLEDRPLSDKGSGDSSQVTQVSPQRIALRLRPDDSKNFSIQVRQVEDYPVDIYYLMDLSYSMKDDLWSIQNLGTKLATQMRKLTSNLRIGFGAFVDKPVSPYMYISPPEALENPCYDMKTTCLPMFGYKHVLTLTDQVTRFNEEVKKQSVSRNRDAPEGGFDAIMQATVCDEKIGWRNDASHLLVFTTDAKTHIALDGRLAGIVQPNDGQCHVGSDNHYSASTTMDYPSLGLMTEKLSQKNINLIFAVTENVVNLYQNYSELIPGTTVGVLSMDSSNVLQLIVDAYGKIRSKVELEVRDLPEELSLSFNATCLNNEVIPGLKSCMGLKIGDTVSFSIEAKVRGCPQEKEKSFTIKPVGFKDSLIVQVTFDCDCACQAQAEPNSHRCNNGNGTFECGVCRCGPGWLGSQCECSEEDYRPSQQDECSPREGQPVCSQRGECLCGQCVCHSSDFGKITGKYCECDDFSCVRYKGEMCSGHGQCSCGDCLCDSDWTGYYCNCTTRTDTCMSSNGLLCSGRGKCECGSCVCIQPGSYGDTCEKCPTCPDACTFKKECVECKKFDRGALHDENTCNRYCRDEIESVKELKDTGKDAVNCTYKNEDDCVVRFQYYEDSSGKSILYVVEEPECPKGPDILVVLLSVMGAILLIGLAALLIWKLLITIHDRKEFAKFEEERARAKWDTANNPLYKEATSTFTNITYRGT

Substance | binding to human αvβ3 (human αvβ3) | inhibition of fibrinogen-ru binding to GPIIb/IIIa (GPIIb/IIIa) | IC100 (HT1080 cells)
Echistatin-Fc: echistatin fused via a 5 glycine linker to the C-terminus of the Fc portion of human IgG1 (SEQ ID NO: 109) | binds with high affinity | inhibition | –
YIGSRYIGSRYIGSR [(YIGSR)3] | – | – | 2.9 µM
